T1: MBP-OsMS188 (Oryza sativa (rice; Nipponbare?), UniProt Q7XQN1 1-372)
T1 sequence: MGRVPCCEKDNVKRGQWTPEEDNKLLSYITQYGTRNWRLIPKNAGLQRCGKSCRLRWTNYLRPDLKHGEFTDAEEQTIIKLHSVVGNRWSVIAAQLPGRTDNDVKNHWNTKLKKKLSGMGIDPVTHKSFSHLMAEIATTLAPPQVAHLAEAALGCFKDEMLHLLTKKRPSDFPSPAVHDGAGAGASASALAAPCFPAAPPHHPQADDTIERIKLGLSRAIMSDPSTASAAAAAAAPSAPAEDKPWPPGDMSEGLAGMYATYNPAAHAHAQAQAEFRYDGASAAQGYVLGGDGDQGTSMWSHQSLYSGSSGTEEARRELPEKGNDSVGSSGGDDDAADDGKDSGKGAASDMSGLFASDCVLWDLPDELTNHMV

T2: MBP-bHLH142 (Oryza sativa (rice; Nipponbare?), UniProt Q5JNS0 1-379)
T2 sequence: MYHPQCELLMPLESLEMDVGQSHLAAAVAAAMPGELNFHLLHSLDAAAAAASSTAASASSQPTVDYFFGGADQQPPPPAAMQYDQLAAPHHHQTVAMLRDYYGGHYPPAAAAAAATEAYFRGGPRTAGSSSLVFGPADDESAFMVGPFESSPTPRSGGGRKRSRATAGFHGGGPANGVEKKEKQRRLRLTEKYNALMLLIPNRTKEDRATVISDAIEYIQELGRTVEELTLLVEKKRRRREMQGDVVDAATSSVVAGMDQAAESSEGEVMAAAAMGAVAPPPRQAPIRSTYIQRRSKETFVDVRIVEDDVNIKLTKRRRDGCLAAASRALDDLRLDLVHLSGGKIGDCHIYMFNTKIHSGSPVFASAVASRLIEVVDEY

T3: MBP-EAT1 (Oryza sativa (rice; Nipponbare?), UniProt Q7X8R0 1-464)
T3 sequence: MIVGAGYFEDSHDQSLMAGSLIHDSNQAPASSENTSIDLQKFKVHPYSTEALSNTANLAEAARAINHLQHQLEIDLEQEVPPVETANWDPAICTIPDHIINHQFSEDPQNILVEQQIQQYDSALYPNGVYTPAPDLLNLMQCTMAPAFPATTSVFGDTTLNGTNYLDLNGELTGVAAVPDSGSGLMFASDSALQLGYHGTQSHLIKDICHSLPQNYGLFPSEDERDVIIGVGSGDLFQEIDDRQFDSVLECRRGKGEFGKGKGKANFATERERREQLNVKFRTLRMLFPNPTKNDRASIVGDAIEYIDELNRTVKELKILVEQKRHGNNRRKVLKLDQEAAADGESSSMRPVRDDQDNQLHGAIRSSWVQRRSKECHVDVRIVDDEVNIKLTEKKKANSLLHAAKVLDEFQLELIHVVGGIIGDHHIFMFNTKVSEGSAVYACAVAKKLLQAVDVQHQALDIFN

B1: DPW promoter probe (dsDNA)
DNA 1: AGGGAACTGAATCTTTTGCATGAACCACTGCATTTCCAAGAAGTGCACGAGCTTTGCA
DNA 2: TGCAAAGCTCGTGCACTTCTTGGAAATGCAGTGGTTCATGCAAAAGATTCAGTTCCCT
B2: OsPKS1 promoter probe (dsDNA)
DNA 1: GCAAAAATGCAGGGTAAAACCAAAGAAGGGTGGAAGGAATGAACCTTCTGCTCCCCCC
DNA 2: GGGGGGAGCAGAAGGTTCATTCCTTCCACCCTTCTTTGGTTTTACCCTGCATTTTTGC
B3: CYP703A3 promoter probe (dsDNA)
DNA 1: GATATCACATGACTTGTACATAATGCCTAAAATGTGGATATCTGACCAGGTGCTTGGTG
DNA 2: CACCAAGCACCTGGTCAGATATCCACATTTTAGGCATTATGTACAAGTCATGTGATATC
B4: OsPKS2 promoter probe (dsDNA)
DNA 1: TACCTGCTCTCCACCAACCATTCTTTCCATGCATTCGTTGCCTCTCAACTGCACCAGCT
DNA 2: AGCTGGTGCAGTTGAGAGGCAACGAATGCATGGAAAGAATGGTTGGTGGAGAGCAGGTA
B5: ABCG15 promoter probe (dsDNA)
DNA 1: AGTCTGCTTGGCGCTCTCTCTCTGAACCTGTCACTCTTTTTTTCTGTGTCT
DNA 2: AGACACAGAAAAAAAGAGTGACAGGTTCAGAGAGAGAGCGCCAAGCAGACT
B6: CYP704B2 promoter probe (dsDNA)
DNA 1: AATAGCCTATTCAGATGAAGTAGAATTCAGGTGAAGTAGAAACCAACTACTTTGGGTTC
DNA 2: GAACCCAAAGTAGTTGGTTTCTACTTCACCTGAATTCTACTTCATCTGAATAGGCTATT
B7: OsMS188 promoter probe (dsDNA)
DNA 1: GAGAATGCATTTGGTGGTCGTGTGTTGTTTGTAACAACTGGGGAGC
DNA 2: GCTCCCCAGTTGTTACAAACAACACACGACCACCAAATGCATTCTC

Columns and labels:
[1] = biological target: T1, MBP-OsMS188; assay: EMSA; unlabelled probe competes; LightShift Chemiluminescent EMSA Kit (Thermo); buffer, salt, pH and temperature not stated; details: protein: recombinant; label: biotin; blunt
[2] = biological target: T2, MBP-bHLH142; assay: EMSA; shifted band not reduced by unlabelled probe; authors conclude no direct binding; LightShift Chemiluminescent EMSA Kit (Thermo); buffer, salt, pH and temperature not stated; details: protein: recombinant; chain copies: 2; label: biotin; blunt
[3] = biological target: T3, MBP-EAT1; assay: as above; details: protein: recombinant; chain copies: 2; label: biotin; blunt
[4] = biological target: MBP-TDR (Oryza sativa (rice; Nipponbare?), UniProt Q6YUS3 1-552); assay: EMSA; unlabelled probe (5- to 200-fold) competes; LightShift Chemiluminescent EMSA Kit (Thermo); buffer, salt, pH and temperature not stated

Row | Binder | binding result [1] | further results
1 | B1 | binds | 
2 | B2 | binds | 
3 | B3 | binds | 
4 | B4 | binds | 
5 | B5 | binds | 
6 | B6 | binds | 
7 | B7 |  | binding result [2]: no binding; binding result [3]: no binding; binding result [4]: binds

Source: publication PMC7788135, “OsMS188 Is a Key Regulator of Tapetum Development and Sporopollenin Synthesis in Rice”
